The target of assay [1] is Human α7β1 (human) (UniProt Q13683). Kind of assay: cell-based or functional assay.
Assay [2] shares this target. Briefly: cell-based or functional assay. This is another data set of the same source.
The target in assay [3] is Human α7β1 (human), Q13683. Briefly: cell-based or functional assay.
Assay [4] concerns the target T1, Human a7 Genu Calf 1-2 (human, UniProt Q13683 679-1078, limits assumed).
T1 construct: domain: Genu Calf 1-2
T1 sequence (looked up): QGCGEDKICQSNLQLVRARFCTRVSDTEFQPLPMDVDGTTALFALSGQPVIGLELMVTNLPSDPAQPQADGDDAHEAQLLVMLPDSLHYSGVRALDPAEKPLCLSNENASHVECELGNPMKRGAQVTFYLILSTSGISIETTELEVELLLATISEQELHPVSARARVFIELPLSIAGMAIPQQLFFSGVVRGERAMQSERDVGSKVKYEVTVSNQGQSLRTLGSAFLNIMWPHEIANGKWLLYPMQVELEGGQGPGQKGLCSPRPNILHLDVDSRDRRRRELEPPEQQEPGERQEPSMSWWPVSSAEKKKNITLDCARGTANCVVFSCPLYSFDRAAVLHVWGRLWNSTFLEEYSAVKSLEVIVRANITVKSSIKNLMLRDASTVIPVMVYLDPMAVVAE
Briefly: SPR.

Here are results for 14 molecules from patent publication US20250289894A1 (MORPHIC THERAPEUTIC, published 2025).

Changes are numbered by the printed parent chain. Like-named read-outs stand apart in the source and are kept apart here.

In general, Kd refers to the equilibrium constant for the complex coming apart. Higher therefore signals lower affinity.

Isotype Control (antibody): in assay [1], the EC50 (nM), ECIS, DMD-1 myoblast cells (control row) amounted to 38.1 nM; the EC50 (nM), ECIS, DMD-2 myoblast cells (control row) stood at 8.7 nM; the EC50 (nM), ECIS, Non-DMD myoblast cells (control row) worked out at 8.1 nM; the Emax (% of RefAb1), ECIS, DMD-1 myoblast cells (control row) was 59 % of RefAb1. For the same molecule, in assay [1], the Emax (% of RefAb1), ECIS, DMD-2 myoblast cells (control row) was 39 % of RefAb1 and the Emax (% of RefAb1), ECIS, Non-DMD myoblast cells (control row) was 35 % of RefAb1.

In assay [2], TS2/16 antibody came in with an EC50 (nm), a7b1 activation assay of 1.97 nM; an EC50 (ug/mL), a7b1 activation assay of 0.3 µg/mL; an Emax (F.C.), a7b1 activation assay of 2.09 F.C. Moreover, in assay [1], the EC50 (nM), a7b1 activation assay turned out to be 2.07 nM; the EC50 (ug/mL), a7b1 activation assay worked out at 0.31 µg/mL; the Emax (% TS2/16), a7b1 activation assay amounted to 100 % TS2/16; the Emax (F.C.), a7b1 activation assay is 2.34 F.C.

B1: Ab24/Ab25 (antibody, V domains shown)
VH: EVQLVQSGAEVKKPGSSVKVSCKASGYSFTRYWMHWVRQAPGQGLEWIGKIDPSDSETRLNQEFRDRATLTVDKSTSTAYMELSSLRSEDTAVYYCARGGYFGREWYYDVWGQGTLVTVSS
VL: DIVMTQSPLSLPVTPGEPASISCRSSQSLVHRNGNTYLHWYLQKPGQSPQLLIYEVSNRAAGVPDRFSGSGSGTDFTLKISRVEAEDVGVYFCSQSTHVPWTFGGGTKLEIK
Consider B1, for which, in assay [3], the EC50 (nM), a7b1 activation assay came to 1.86 nM; the EC50 (ug/mL), a7b1 activation assay is 0.28 µg/mL; the Emax (% TS2/16), a7b1 activation assay was determined as 97.9 % TS2/16; the Emax (F.C.), a7b1 activation assay (9EG7 staining, human iPSC cardiomyocytes) turned out to be 2.29 F.C.

B2: Ab32 (antibody, human IgG1, V domains shown)
VH: B1 VH with R104E, E105Q, Y108H
VL: B1 VL with A61S
In the case of B2, in assay [4], the Kd turned out to be 1.53 nM.

B3: Ab26/Ab27 (antibody, V domains shown)
VH: B1 VH with R104E, Y108H
VL: B1 VL with A60F, A61T, S94A, H98Q, V99L, W101Y
In assay [3], B3 yielded an EC50 (nm), a7b1 activation assay of 2.88 nM; an EC50 (ug/mL), a7b1 activation assay of 0.43 µg/mL; an Emax (% TS2/16), a7b1 activation assay of 86.3 % TS2/16; an Emax (F.C.), a7b1 activation assay of 1.8 F.C.

B4: Ab40 (antibody, human IgG1, V domains shown)
VH: B1 VH with R104E, Y108H
VL: B1 VL with V56G, N58K, A60F, A61S
For B4, binding in assay [4] was put at a Kd of 0.94 nM.

B5: Ab36 (antibody, human IgG1, V domains shown)
VH: B1 VH with R104E, E105K, Y108H
VL: B1 VL with N58H, A60F, A61P, S94A, H98Q, V99L, W101Y
In assay [4], B5 gave a Kd of 1.33 nM.

B6: Ab38 (antibody, human IgG1, V domains shown)
VH: B1 VH with R104E, Y108N
VL: B1 VL with E55K, A61S
B6 yielded a Kd in assay [4] of 4.44 nM.

B7: Ab33 (antibody, human IgG1, V domains shown)
VH: B1 VH with R104V, E105G, Y108N
VL: B1 VL with A60V, A61P
In the case of B7, binding in assay [4] was put at a Kd of 2.88 nM.

B8: Ab31 (antibody, human IgG1, V domains shown)
VH: B1 VH with E105Q, Y108F
VL: B1 VL with A61S
Molecule B8 returned a Kd in assay [4] of 2.53 nM.

B9: Ab37 (antibody, human IgG1, V domains shown)
VH: B1 VH with R104E, E105K, Y108H
VL: B1 VL with E55G, A60F, S94A, H98Q, V99L, W101Y
In assay [4], B9 showed a Kd of 1.43 nM.

B10: Ab39 (antibody, human IgG1, V domains shown)
VH: B1 VH with R104E, Y108H
VL: B1 VL with E55K, A61S
Turning to B10, the Kd in assay [4] is 1.57 nM.

B11: Ab34 (antibody, human IgG1, V domains shown)
VH: B1 VH with R104E, E105T, Y108H
VL: B1 VL with N58H, A61S
Molecule B11 registered a Kd in assay [4] of 1.35 nM.

B12: Ab42 (antibody, human IgG1, V domains shown)
VH: B1 VH with E105Q, Y108F
VL: B1 VL with V56G, N58K, A60F, A61S, S94A, H98Q, V99L, W101Y
As for B12, binding in assay [4] was characterised by a dissociation constant (Kd) of 5.7 nM.
